According to patent US20040087783:

Molecular target: denatured enolase

B1: N-terminal hexahistidine tagged SAD (protein)
chain: MRGSHHHHHHEPFLRRRLAFLSFFWDKIWPAGGEPDHGTPGSLDPNTDPVPTLPAEPCSPFPQLFLALYDFTARCGGELSVRRGDRLCALEEGGGYIFARRLSGQPSAGLVPITHVAKASPETLSDQPWYFSGVSRTQAQQLLLSPPNEPGAFLIRPSESSLGGYSLSVRAQAKVCHYRVSMAADGSLYLQKGRLFPGLEELLTYYKANWKLIQNPLLQPCMPQKAPRQDVWERPHSEFALGRKLGEGYFGEVWEGLWLGSLPVAIKVIKSANMKLTDLAKEIQTLKGLRHERLIRLHAVCSGGEPVYIVTELMRKGNLQAFLGTPEGRALRLPPLLGFACQVAEGMSYLEEQRVVHRDLAARNVLVDDGLACKVADFGLARLLKDDIYSPSSSSKIPVKWTAPEAANYRVFSQKSDVWSFGVLLHEVFTYGQCPYEGMTNHETLQQIMRGYRLPRPAACPAEVYVLMLECWRSSPEERPSFATLREKLHAIHRCHP
**Q.** How did the “phosphorylation of substrate, in vitro kinase assay with 32P-ATP, autoradiography” value turn out when B1 was run?
**A.** SAD was able to phosphorylate both denatured enolase and poly-Glu-Tyr in vitro
